Target: T1, IL-4Rα ectodomain (site-specifically biotinylated IL-4Rα ectodomain protein) (human, UniProt P24394 26-232, site-specifically biotinylated (site not stated))
T1 construct: extracellular domain; Immobilised on a streptavidin-coated SPR chip; also called IL-4Rα ECD; IL-4 receptor α
T1 sequence (looked up): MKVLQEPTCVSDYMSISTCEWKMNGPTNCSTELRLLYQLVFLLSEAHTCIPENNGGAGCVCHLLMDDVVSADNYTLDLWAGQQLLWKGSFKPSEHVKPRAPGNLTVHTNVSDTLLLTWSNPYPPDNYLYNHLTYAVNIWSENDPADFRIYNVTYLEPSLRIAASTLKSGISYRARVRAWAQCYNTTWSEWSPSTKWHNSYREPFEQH
Test: in vitro interaction analysis (SPR) on IL-4Rα

B1: IL-4 mutein F82D Q20N T28N K61N R121C-Glc (Hek293-derived, hyper-glycosylated) (ligand)
chain: HKCDITLQEIIKTLNSLTENKTLCTELNVTDIFAASKNTTEKETFCRAATVLRQFYSHHENDTRCLGATAQQFHRHKQLIRDLKRLDRNLWGLAGLNSCPVKEANQSTLENFLERLKTIMCEKYSKCSS
modifications: complex N-glycans at positions 38, 20, 28 and 61; disulphide conjugated glucose at Cys121
notes: also called Q20N/T28N/K61N/F82D/R121C-Glc; 3rd generation IL-4 antagonist; not shown: C-terminal thrombin cleavage site and hexahistidine tag of the modified pHLsec vector
  Kd: ~0.218 nM

— EP3553078A1 (Julius-Maximilians-Universität Würzburg, dated 2019)
